# Reference: patent US20230103631A1, “PEPTIDES AS SELECTIVE GIP RECEPTOR AGONISTS” (Sanofi, priority 2020, published 2023)
# *1 amine or outer side, *2 acyl side, *3 side chain or, on linkers, in order; H or OH if unused. Where no end group is shown, it is not given here. Side-chain parts run from the residue outwards. [ ]: non-standard residue; d: D form. The star is where a group is joined. C20 diacid = O=C(O)CCCCCCCCCCCCCCCCCCC(=O)*; C18 diacid = O=C(O)CCCCCCCCCCCCCCCCC(=O)*; γGlu = O=C(O)[C@H](CCC(=O)[*:2])N[*:1]; NMeY = CN[C@@H](Cc1ccc(O)cc1)C(=O)O; AEEA = NCCOCCOCC(=O)O; Aib = CC(C)(N)C(=O)O
# T1: human GIP receptor (human, UniProt P48546 22-466)
# T1 sequence (looked up): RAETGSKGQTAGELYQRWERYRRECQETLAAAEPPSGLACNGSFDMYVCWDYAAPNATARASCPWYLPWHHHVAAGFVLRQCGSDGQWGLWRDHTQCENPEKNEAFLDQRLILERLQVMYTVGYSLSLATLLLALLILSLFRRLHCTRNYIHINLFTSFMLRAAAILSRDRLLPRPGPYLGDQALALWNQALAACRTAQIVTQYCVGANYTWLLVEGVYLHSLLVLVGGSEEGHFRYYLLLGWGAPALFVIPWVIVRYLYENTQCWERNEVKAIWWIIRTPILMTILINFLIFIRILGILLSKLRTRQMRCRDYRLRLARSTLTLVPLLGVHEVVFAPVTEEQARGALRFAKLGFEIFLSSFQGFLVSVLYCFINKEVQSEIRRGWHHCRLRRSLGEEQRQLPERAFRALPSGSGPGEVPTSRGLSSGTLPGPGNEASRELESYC
# B1: SEQ ID NO: 16 (peptide)
# peptide: Y[Aib]EGTFISDLSI[Aib]K([Gly-Gly-Gly-γGlu-C18 diacid])DRIHQEEFIEWLLAQGPSSGAPPPS-NH2
# modifications: N-terminus assumed
# SMILES: CC[C@H](C)[C@H](NC(=O)[C@H](Cc1ccccc1)NC(=O)[C@H](CCC(=O)O)NC(=O)[C@H](CCC(=O)O)NC(=O)[C@H](CCC(N)=O)NC(=O)[C@H](Cc1c[nH]cn1)NC(=O)[C@@H](NC(=O)[C@H](CCCNC(=N)N)NC(=O)[C@H](CC(=O)O)NC(=O)[C@H](CCCCNC(=O)CNC(=O)CNC(=O)CNC(=O)CC[C@H](NC(=O)CCCCCCCCCCCCCCCCC(=O)O)C(=O)O)NC(=O)C(C)(C)NC(=O)[C@@H](NC(=O)[C@H](CO)NC(=O)[C@H](CC(C)C)NC(=O)[C@H](CC(=O)O)NC(=O)[C@H](CO)NC(=O)[C@@H](NC(=O)[C@H](Cc1ccccc1)NC(=O)[C@@H](NC(=O)CNC(=O)[C@H](CCC(=O)O)NC(=O)C(C)(C)NC(=O)[C@@H](N)Cc1ccc(O)cc1)[C@@H](C)O)[C@@H](C)CC)[C@@H](C)CC)[C@@H](C)CC)C(=O)N[C@@H](CCC(=O)O)C(=O)N[C@@H](Cc1c[nH]c2ccccc12)C(=O)N[C@@H](CC(C)C)C(=O)N[C@@H](CC(C)C)C(=O)N[C@@H](C)C(=O)N[C@@H](CCC(N)=O)C(=O)NCC(=O)N1CCC[C@H]1C(=O)N[C@@H](CO)C(=O)N[C@@H](CO)C(=O)NCC(=O)N[C@@H](C)C(=O)N1CCC[C@H]1C(=O)N1CCC[C@H]1C(=O)N1CCC[C@H]1C(=O)N[C@@H](CO)C(N)=O
# B2: SEQ ID NO: 14 (peptide)
# peptide: Y[Aib]EGTFISDLSI[Aib]K([AEEA-AEEA-γGlu-γGlu-C18 diacid])DRIHQEEFIEWLLAQGPSSGAPPPS-NH2
# modifications: N-terminus assumed
# SMILES: CC[C@H](C)[C@H](NC(=O)[C@H](Cc1ccccc1)NC(=O)[C@H](CCC(=O)O)NC(=O)[C@H](CCC(=O)O)NC(=O)[C@H](CCC(N)=O)NC(=O)[C@H](Cc1c[nH]cn1)NC(=O)[C@@H](NC(=O)[C@H](CCCNC(=N)N)NC(=O)[C@H](CC(=O)O)NC(=O)[C@H](CCCCNC(=O)COCCOCCNC(=O)COCCOCCNC(=O)CC[C@H](NC(=O)CC[C@H](NC(=O)CCCCCCCCCCCCCCCCC(=O)O)C(=O)O)C(=O)O)NC(=O)C(C)(C)NC(=O)[C@@H](NC(=O)[C@H](CO)NC(=O)[C@H](CC(C)C)NC(=O)[C@H](CC(=O)O)NC(=O)[C@H](CO)NC(=O)[C@@H](NC(=O)[C@H](Cc1ccccc1)NC(=O)[C@@H](NC(=O)CNC(=O)[C@H](CCC(=O)O)NC(=O)C(C)(C)NC(=O)[C@@H](N)Cc1ccc(O)cc1)[C@@H](C)O)[C@@H](C)CC)[C@@H](C)CC)[C@@H](C)CC)C(=O)N[C@@H](CCC(=O)O)C(=O)N[C@@H](Cc1c[nH]c2ccccc12)C(=O)N[C@@H](CC(C)C)C(=O)N[C@@H](CC(C)C)C(=O)N[C@@H](C)C(=O)N[C@@H](CCC(N)=O)C(=O)NCC(=O)N1CCC[C@H]1C(=O)N[C@@H](CO)C(=O)N[C@@H](CO)C(=O)NCC(=O)N[C@@H](C)C(=O)N1CCC[C@H]1C(=O)N1CCC[C@H]1C(=O)N1CCC[C@H]1C(=O)N[C@@H](CO)C(N)=O
# B3: SEQ ID NO: 12 (peptide)
# peptide: Y[Aib]EGTFISDLSI[Aib]K([AEEA-AEEA-AEEA-γGlu-C18 diacid])DRIHQEEFIEWLLAQGPSSGAPPPS-NH2
# modifications: N-terminus assumed
# SMILES: CC[C@H](C)[C@H](NC(=O)[C@H](Cc1ccccc1)NC(=O)[C@H](CCC(=O)O)NC(=O)[C@H](CCC(=O)O)NC(=O)[C@H](CCC(N)=O)NC(=O)[C@H](Cc1c[nH]cn1)NC(=O)[C@@H](NC(=O)[C@H](CCCNC(=N)N)NC(=O)[C@H](CC(=O)O)NC(=O)[C@H](CCCCNC(=O)COCCOCCNC(=O)COCCOCCNC(=O)COCCOCCNC(=O)CC[C@H](NC(=O)CCCCCCCCCCCCCCCCC(=O)O)C(=O)O)NC(=O)C(C)(C)NC(=O)[C@@H](NC(=O)[C@H](CO)NC(=O)[C@H](CC(C)C)NC(=O)[C@H](CC(=O)O)NC(=O)[C@H](CO)NC(=O)[C@@H](NC(=O)[C@H](Cc1ccccc1)NC(=O)[C@@H](NC(=O)CNC(=O)[C@H](CCC(=O)O)NC(=O)C(C)(C)NC(=O)[C@@H](N)Cc1ccc(O)cc1)[C@@H](C)O)[C@@H](C)CC)[C@@H](C)CC)[C@@H](C)CC)C(=O)N[C@@H](CCC(=O)O)C(=O)N[C@@H](Cc1c[nH]c2ccccc12)C(=O)N[C@@H](CC(C)C)C(=O)N[C@@H](CC(C)C)C(=O)N[C@@H](C)C(=O)N[C@@H](CCC(N)=O)C(=O)NCC(=O)N1CCC[C@H]1C(=O)N[C@@H](CO)C(=O)N[C@@H](CO)C(=O)NCC(=O)N[C@@H](C)C(=O)N1CCC[C@H]1C(=O)N1CCC[C@H]1C(=O)N1CCC[C@H]1C(=O)N[C@@H](CO)C(N)=O
# B4: SEQ ID NO: 15 (peptide)
# peptide: Y[Aib]EGTFISDLSI[Aib]K([AEEA-AEEA-γGlu-γGlu-C20 diacid])DRIHQEEFIEWLLAQGPSSGAPPPS-NH2
# modifications: N-terminus assumed
# SMILES: CC[C@H](C)[C@H](NC(=O)[C@H](Cc1ccccc1)NC(=O)[C@H](CCC(=O)O)NC(=O)[C@H](CCC(=O)O)NC(=O)[C@H](CCC(N)=O)NC(=O)[C@H](Cc1c[nH]cn1)NC(=O)[C@@H](NC(=O)[C@H](CCCNC(=N)N)NC(=O)[C@H](CC(=O)O)NC(=O)[C@H](CCCCNC(=O)COCCOCCNC(=O)COCCOCCNC(=O)CC[C@H](NC(=O)CC[C@H](NC(=O)CCCCCCCCCCCCCCCCCCC(=O)O)C(=O)O)C(=O)O)NC(=O)C(C)(C)NC(=O)[C@@H](NC(=O)[C@H](CO)NC(=O)[C@H](CC(C)C)NC(=O)[C@H](CC(=O)O)NC(=O)[C@H](CO)NC(=O)[C@@H](NC(=O)[C@H](Cc1ccccc1)NC(=O)[C@@H](NC(=O)CNC(=O)[C@H](CCC(=O)O)NC(=O)C(C)(C)NC(=O)[C@@H](N)Cc1ccc(O)cc1)[C@@H](C)O)[C@@H](C)CC)[C@@H](C)CC)[C@@H](C)CC)C(=O)N[C@@H](CCC(=O)O)C(=O)N[C@@H](Cc1c[nH]c2ccccc12)C(=O)N[C@@H](CC(C)C)C(=O)N[C@@H](CC(C)C)C(=O)N[C@@H](C)C(=O)N[C@@H](CCC(N)=O)C(=O)NCC(=O)N1CCC[C@H]1C(=O)N[C@@H](CO)C(=O)N[C@@H](CO)C(=O)NCC(=O)N[C@@H](C)C(=O)N1CCC[C@H]1C(=O)N1CCC[C@H]1C(=O)N1CCC[C@H]1C(=O)N[C@@H](CO)C(N)=O
# B5: SEQ ID NO: 13 (peptide)
# peptide: [NMeY][Aib]EGTFISDLSI[Aib]K([AEEA-AEEA-γGlu-C18 diacid])DRIHQEEFIEWLLAQGPSSGAPPPS-NH2
# modifications: N-terminus assumed
# SMILES: CC[C@H](C)[C@H](NC(=O)[C@H](Cc1ccccc1)NC(=O)[C@H](CCC(=O)O)NC(=O)[C@H](CCC(=O)O)NC(=O)[C@H](CCC(N)=O)NC(=O)[C@H](Cc1c[nH]cn1)NC(=O)[C@@H](NC(=O)[C@H](CCCNC(=N)N)NC(=O)[C@H](CC(=O)O)NC(=O)[C@H](CCCCNC(=O)COCCOCCNC(=O)COCCOCCNC(=O)CC[C@H](NC(=O)CCCCCCCCCCCCCCCCC(=O)O)C(=O)O)NC(=O)C(C)(C)NC(=O)[C@@H](NC(=O)[C@H](CO)NC(=O)[C@H](CC(C)C)NC(=O)[C@H](CC(=O)O)NC(=O)[C@H](CO)NC(=O)[C@@H](NC(=O)[C@H](Cc1ccccc1)NC(=O)[C@@H](NC(=O)CNC(=O)[C@H](CCC(=O)O)NC(=O)C(C)(C)NC(=O)[C@H](Cc1ccc(O)cc1)NC)[C@@H](C)O)[C@@H](C)CC)[C@@H](C)CC)[C@@H](C)CC)C(=O)N[C@@H](CCC(=O)O)C(=O)N[C@@H](Cc1c[nH]c2ccccc12)C(=O)N[C@@H](CC(C)C)C(=O)N[C@@H](CC(C)C)C(=O)N[C@@H](C)C(=O)N[C@@H](CCC(N)=O)C(=O)NCC(=O)N1CCC[C@H]1C(=O)N[C@@H](CO)C(=O)N[C@@H](CO)C(=O)NCC(=O)N[C@@H](C)C(=O)N1CCC[C@H]1C(=O)N1CCC[C@H]1C(=O)N1CCC[C@H]1C(=O)N[C@@H](CO)C(N)=O
# Tests used:
# human GLP-1 receptor = human GLP-1 receptor (human, UniProt P43220 24-463); assay: cell-based or functional assay
# human GIP receptor = target: T1, human GIP receptor; assay: cell-based or functional assay
Binder,"EC50 hGLP-1R 0% HSA, cAMP in HEK-293 cells (human GLP-1 receptor) [pM]","EC50 hGIPR 0% HSA, cAMP in HEK-293 cells (human GIP receptor) [pM]","EC50 hGIPR 0.1% HSA, cAMP in HEK-293 cells (human GIP receptor) [pM]"
B1,> 10000,0.19,2.55
B2,> 10000,0.23,1.56
B3,> 10000,0.26,2.38
B4,> 10000,0.34,7.65
B5,> 10000,0.2,1.76
